Molecular target: T1, recombinant human CD3 Epsilon protein (KACTUS) (human, UniProt P07766 23-126)
T1 construct: Bought protein
Experiment: ELISA, plate coated with 1 ug/ml recombinant human CD3 epsilon

T1 sequence (P07766 23-126): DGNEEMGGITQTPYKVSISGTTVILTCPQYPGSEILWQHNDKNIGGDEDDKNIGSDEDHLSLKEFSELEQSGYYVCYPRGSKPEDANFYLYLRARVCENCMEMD

binding result: binds
B1: anti-Her2/anti-CD3 bispecific antibody comprising the anti-CD3 antibody mutant (mutation site VH-Y61C) (bispecific antibody)
VH: EVQLVESGGGLVQPGGSLRLSCAASGFTFSTYAMNWVRQAPGKGLEWVGRIRSKYNNYATCYADSVKDRFTISRDDSKNSLYLQMNSLKTEDTAVYYCARHGNFGNSYVSWFAYWGQGTLVTVSS
VL: QTVVTQEPSLTVSPGGTVTLTCRSSTGAVTTSNYANWVQQKPGQAPRGLIGGTNKRAPGVPARFSGSLLGDKAALTLLGAQPEDEAEYFCALWYSNLWVFGGGTKLTVL
scFv: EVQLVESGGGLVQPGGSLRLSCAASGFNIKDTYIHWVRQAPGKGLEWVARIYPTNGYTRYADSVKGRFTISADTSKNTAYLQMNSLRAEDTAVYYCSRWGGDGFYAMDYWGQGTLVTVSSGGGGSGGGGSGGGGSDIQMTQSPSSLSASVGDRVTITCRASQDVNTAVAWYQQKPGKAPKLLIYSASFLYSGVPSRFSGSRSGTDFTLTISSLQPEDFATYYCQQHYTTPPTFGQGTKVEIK
notes: also called CD3-Her2 Mutation; CD3-HER2 Mutation

Source: patent EP4578875A1 (Ying Mai de Medical Technology (Guangdong) Co., Ltd., dated 2025)
